Experimental data: patent US6512102B1, “Compositions and methods of diagnosis and treatment using casein kinase I” (Chiron Corporation, priority 1998, dated 2003)

What was measured:
[1] = system: ventralized Xenopus embryo; test: Rescue of dorsal structure of ventralized Xenopus embryos by injected RNA; assay type: in vivo; conditions: RNA injected into ventralized embryos
Protocol: (§1) Combinations of Wnt-1, CKIε, CKI kinase dead variant (lys→arg 38) and Lef-1 were transfected into Cos cells with a luciferase gene driven by multiple copies of Lef enhancer elements. As an internal control of transfection efficiency, the β-galactosidase gene driven by the SV40 promoter was co-transfected in all samples. 24 hours after transfection, cells were lysed and the lysate was tested for luciferase activity. The luciferase activity was normalized with respect to β-galactosidase activity. […] Dorsoanterior index (DAI) grade numbers were assigned to the phenotypes of the embryos. A grade 5 embryo is normal; a grade 3 embryo is cyclopic (one eye); a grade 1 embryo has a tail fin and somites but no head (acephalic); and a grade 0 embryo has no dorsoanterior structures (Kao et al., 1988).
Furthermore, when the variant was co-transfected with CKIε into Cos cells, Lef-1-dependent luciferase activity was inhibited. […] Thus, the variant interferes with Wnt signaling, acting as a dominant negative.

[2] = system: Lef-1 dependent transcription; test: Lef-1 enhancer luciferase reporter assay in Cos cells; assay type: cell-based; conditions: for Wnt signal transduction (Lef-luciferase): variant co-transfected with Wnt-1; for signal transduced by dominant negative GSK3 (DNGSK3): variant co-transfected with dominant negative GSK3 and Lef-1; for luciferase activity transduced by Dvl-1: variant with Dvl-1
Protocol: as §1
The effect of CKI on Lef-1 dependent transcription in Cos mammalian cells was examined. A luciferase reporter gene driven by multiple copies of the Lef-I enhancer sequence was used. When only Wnt-I or lef-I or CKIε was transfected with the reporter construct, luciferase activity was induced only 2 to 3 fold (FIG. 1A). When Lef-1 was cotransfected with either Wnt-1 or CKIε, luciferase activity was induced 30 or 12 fold respectively.
Luciferase reporter plasmid contains multiple Lef-I enhancer sites upstream of the fos basal promoter. Various DNA plasmids encoding Wnt-1, CKIε , Dvl-1, GSK3 etc. were co-transfected with a luciferase reporter plasmid and a SV40 β-galactosidase plasmid into 24-well Cos cell culture. For each well, 0.5 μg total DNA was in a ratio of 0.08 μg:016 μg:0.02 μg for signaling molecules:luciferase: β-gal. SV40 β-gal construct was used as an internal transfection control, since β-gal activity is independent of the Wnt-1 signaling molecules. Transfection was done using LT1 (5 μl/μg DNA) (Panvera Co. # MIR23 10). Each sample was transfected in triplex repeats to obtain a statistical value. After 24 hours, cells were washed once with PBS and lysed in 50 μl/well lysis buffer supplied with the luciferase assay kit (Promega cat# EI500). 10 μl of each sample was aliquoted into two sets of tubes, one set for the luciferase assay and another for β-gal chemiluminescent reporter assay (Galacto-Light, TROPIX Inc. #BL100G). The result of the luciferase assay was divided by the corresponding β-gal activity, and then averaged.

[3] = system: casein; test: Kinase activity of construct transfected into Cos cells, casein as substrate; assay type: biochemical; conditions: substrate casein protein
Protocol: It was transiently transfected into Cos cells and its activity was tested using substrate casein protein.

[4] = system: Lef-1 reporter gene activity; test: Lef-1 reporter gene assay in 293 cells after antisense transfection; assay type: cell-based; conditions: Wnt-1 expressed in 293 cells
Protocol: FIGS. 4A-C Lef-1 reporter gene activity induced by Wnt (A), Dv1-3 (B), or mutant β-catenin (C) is inhibited by CKIε antisense polynucleotides (CKI-a and CKI-b), but not by the reverse sequence control (RC). 293 cells were plated at a density of 1.5*10^5 cells per 12-well dish 16 hours prior to transfection 6 ul 0.5 mM cationic lipitoid and 2 ul 100 uM polynucleotide in 50 ul opti-MEM (Life Technologies) was mixed together and added dropwise to cells in 1 ml of fresh media. After 24 hours cells, cells were washed with opti-MEM and transfected with luciferase reporter plasmids (0.02 mg lef-1, 0.2 lef-1 reporter, 0.03 mg renilla luciferase) control using lipofectamine (Life Technologies). Cells were assayed for luciferase activity 48 hours after transfection of antisense polynucleotides.
One method for measuring activation of gene expression by the Wnt pathway is to use the Lef-1 reporter gene assay. Antisense polynucleotides were transfected into cells by using cationic peptoid reagents followed by transfection with Lef-1, Lef-1 reporter, and Wnt-1 plasmids using lipofectamine (Life Technologies). Lef-1 reporter gene activity was measured using the Dual-Luciferase Reporter Assay System (Promega) according to the manufacturers specifications. […]

| Molecule | rescue of embryonic dorsal structure [1] | Lef-1-dependent luciferase activity ([2]; variant co-transfected with CKIε) | Wnt signal transduction (Lef-luciferase) [2] | Wnt signal transduction (Lef-luciferase) ([2]; listed as CKIKD) | signal transduced by dominant negative GSK3 (DNGSK3) [2] | signal transduced by dominant negative GSK3 (DNGSK3) ([2]; listed as variant) | luciferase activity transduced by Dvl-1 [2] | luciferase activity transduced by Dvl-1 ([2]; listed as variant) | kinase activity [3] | luciferase activity induced ([2]; cotransfected with Lef-1, Cos cells) [fold] | stimulation of Lef-1 reporter gene transcription over vector transfected cells [4] |
| --- | --- | --- | --- | --- | --- | --- | --- | --- | --- | --- | --- |
| CKI lys→arg 38: kinase-inactive CKIε construct in which lysine 38 in the kinase domain was mutated to arginine (protein, Mus Casein Kinase I epsilon) MELRVGNKYRLGRKIGSGSFGDIYLGANIASGEEVAIRLECVKTKHPQLHIESKFYKMMQGGVGIPSIKWCGAEGDYNVMVMELLGPSLEDLFNFCSRKFSLKTVLLLADQMISRIEYIHSKNFIHRDVKPDNFLMGLGKKGNLVYIIDFGLAKKYRDARTHQHIPYRENKNLTGTARYASINTHLGIEQSRRDDLESLGYVLMYFNLGSLPWQGLKAATKRQKYERISEKKMSTPIEVLCKGYPSEFSTYLNFCRSLRFDDKPDYSYLRQLFRNLFHRQGFSYDYVFDWNMLKFGAARNPEDVDRERREHEREERMGQLRGSATRALPPGPPTGATANRLRSAAEPVASTPASRIQQTGNTSPRAISRADRERKVSMRLHRGAPANVSSSDLTGRQEVSRLAASQTSVPFDHLGK | failed to do so | inhibited | blocked the Wnt signal transduction in a dose-dependent manner | inhibits Wnt signaling | did not inhibit the signal | did not reduce the signal | inhibited | inhibited the effect of Dv1-1 on luciferase activity | no detectable kinase activity | – | – |
| Wnt-1: Wnt-1 expressed from transfected plasmid (protein, UniProt P04628 28-370, looked up) Proto-oncogene Wnt-1: ANSSGRWWGIVNVASSTNLLTDSKSLQLVLEPSLQLLSRKQRRLIRQNPGILHSVSGGLQSAVRECKWQFRNRRWNCPTAPGPHLFGKIVNRGCRETAFIFAITSAGVTHSVARSCSEGSIESCTCDYRRRGPGGPDWHWGGCSDNIDFGRLFGREFVDSGEKGRDLRFLMNLHNNEAGRTTVFSEMRQECKCHGMSGSCTVRTCWMRLPTLRAVGDVLRDRFDGASRVLYGNRGSNRASRAELLRLEPEDPAHKPPSPHDLVYFEKSPNFCTYSGRLGTAGTAGRACNSSSPALDGCELLCCGRGHRTRTQRVTERCNCTFHWCCHVSCRNCTHTRVLHECL | – | – | – | – | – | – | – | – | – | 30 | 4-6 fold |
